From patent publication US20140178332A1 (published 2014) come the findings set out here.

Test [1] has as its target T1, recombinant purified human IL-12 p70 (human, UniProt P29459 23-219).
T1 construct: Disulfide-linked heterodimer of p35 and p40; also called hIL-12; Hu IL-12
T1 sequence 1: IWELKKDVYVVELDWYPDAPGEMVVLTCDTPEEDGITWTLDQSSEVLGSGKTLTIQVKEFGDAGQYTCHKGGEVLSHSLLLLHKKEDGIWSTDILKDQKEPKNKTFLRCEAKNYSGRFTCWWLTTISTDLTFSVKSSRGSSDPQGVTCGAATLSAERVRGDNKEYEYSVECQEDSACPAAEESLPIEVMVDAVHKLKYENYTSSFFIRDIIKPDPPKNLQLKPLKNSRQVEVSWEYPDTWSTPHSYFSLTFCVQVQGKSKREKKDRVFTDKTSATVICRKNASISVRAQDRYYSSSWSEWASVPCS
T1 sequence 2: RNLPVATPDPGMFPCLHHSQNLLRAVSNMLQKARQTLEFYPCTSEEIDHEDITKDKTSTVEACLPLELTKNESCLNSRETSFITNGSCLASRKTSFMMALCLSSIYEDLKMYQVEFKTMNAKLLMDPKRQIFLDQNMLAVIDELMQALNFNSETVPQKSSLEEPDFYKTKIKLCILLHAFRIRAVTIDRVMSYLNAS
As to the kind of experiment: SPR (BIAcore) as in Example 1.1.B. On the procedure:
(§1) The BIACORE assay (Biacore, Inc, Piscataway, N.J.) determines the affinity of antibodies with kinetic measurements of on-, off-rate constants. Binding of antibodies to recombinant purified human IL-12 p70 or recombinant purified human IL-12 p40 were determined by surface plasmon resonance-based measurements with a Biacore® 3000 instrument (Biacore® AB, Uppsala, Sweden) using running HBS-EP (10 mM HEPES [pH 7.4], 150 mM NaCl, 3 mM EDTA, and 0.005% surfactant P20) at 25° C. All chemicals were obtained from Biacore® AB (Uppsala, Sweden) or otherwise from a different source as described in the text. Approximately 5000 RU of goat anti-mouse IgG, (Fcγ), fragment specific polyclonal antibody (Pierce Biotechnology Inc, Rockford, Ill.) diluted in 10 mM sodium acetate (pH 4.5) was directly immobilized across a CM5 research grade biosensor chip using a standard amine coupling kit according to manufacturer's instructions and procedures at 25 μg/ml. Unreacted moieties on the biosensor surface were blocked with ethanolamine. Modified carboxymethyl dextran surface in flowcell 2 and 4 was used as a reaction surface. Unmodified carboxymethyl dextran without goat anti-mouse IgG in flow cell 1 and 3 was used as the reference surface. For kinetic analysis, rate equations derived from the 1:1 Langmuir binding model were fitted simultaneously to association and dissociation phases of all eight injections (using global fit analysis) with the use of Biaevaluation 4.0.1 software. Purified antibodies were diluted in HEPES-buffered saline for capture across goat anti-mouse IgG specific reaction surfaces. Mouse antibodies to be captured as a ligand (25 μg/ml) were injected over reaction matrices at a flow rate of 5 μl/min. The association and dissociation rate constants, kₒₙ (unit M⁻¹ s⁻¹) and koff (unit s⁻¹) were determined under a continuous flow rate of 25 μl/min. Rate constants were derived by making kinetic binding measurements at ten different antigen concentrations ranging from 10-200 nM. The equilibrium dissociation constant (unit M) of the reaction between mouse antibodies and recombinant purified human IL-12 p70 or recombinant purified human IL-12 p40 was then calculated from the kinetic rate constants by the following formula: KD=koff/kₒₙ. Binding is recorded as a function of time and kinetic rate constants are calculated.

Test [2] has as its target T1, recombinant purified human IL-12 p70. As to the kind of experiment: cell-based or functional assay.
Test [3] concerns the target T2, recombinant purified cyno IL-12 p70 (cynomolgus monkey).
T2 chain 1: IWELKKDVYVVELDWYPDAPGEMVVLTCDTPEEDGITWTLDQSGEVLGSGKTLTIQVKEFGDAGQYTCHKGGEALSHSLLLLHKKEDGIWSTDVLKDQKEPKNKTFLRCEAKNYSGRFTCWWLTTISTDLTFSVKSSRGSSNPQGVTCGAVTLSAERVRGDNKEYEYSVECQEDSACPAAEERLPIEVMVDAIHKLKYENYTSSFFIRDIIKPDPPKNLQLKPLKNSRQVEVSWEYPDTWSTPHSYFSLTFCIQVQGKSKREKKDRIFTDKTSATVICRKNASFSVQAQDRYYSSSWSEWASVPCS
T2 chain 2: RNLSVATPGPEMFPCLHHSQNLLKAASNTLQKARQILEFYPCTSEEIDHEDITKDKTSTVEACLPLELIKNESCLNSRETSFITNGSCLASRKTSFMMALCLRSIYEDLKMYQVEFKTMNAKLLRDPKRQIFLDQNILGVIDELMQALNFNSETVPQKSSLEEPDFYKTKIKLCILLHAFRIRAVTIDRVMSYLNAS
Description: cell-based or functional assay.

Test [4] deals with T1, recombinant purified human IL-12 p70. As to the kind of experiment: SPR (Biacore), mAb captured on anti-mouse IgG Fc, IL-12 p70 as analyte. On the procedure: as §1
For test [5] the target is unchanged. Description: cell-based or functional assay. The source holds these as a separate data set.
The target of test [6] is T2, recombinant purified cyno IL-12 p70. As to the kind of experiment: cell-based or functional assay.
The target in test [7] is T3, recombinant purified mouse IL-12 (Peprotech) (mouse, UniProt P43432 23-335; P43431 23-215).
T3 construct: Bought reagent; also called mu IL-12; murine IL-12
T3 sequence (looked up) 1: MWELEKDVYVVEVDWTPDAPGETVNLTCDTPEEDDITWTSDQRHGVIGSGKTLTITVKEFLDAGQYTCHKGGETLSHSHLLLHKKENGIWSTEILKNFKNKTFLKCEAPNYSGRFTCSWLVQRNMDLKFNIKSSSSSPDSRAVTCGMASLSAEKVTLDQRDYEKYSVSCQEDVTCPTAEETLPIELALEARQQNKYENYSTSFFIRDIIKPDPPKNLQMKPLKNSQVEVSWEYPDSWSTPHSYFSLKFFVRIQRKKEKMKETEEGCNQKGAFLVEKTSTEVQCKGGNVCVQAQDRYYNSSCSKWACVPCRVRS
T3 sequence (looked up) 2: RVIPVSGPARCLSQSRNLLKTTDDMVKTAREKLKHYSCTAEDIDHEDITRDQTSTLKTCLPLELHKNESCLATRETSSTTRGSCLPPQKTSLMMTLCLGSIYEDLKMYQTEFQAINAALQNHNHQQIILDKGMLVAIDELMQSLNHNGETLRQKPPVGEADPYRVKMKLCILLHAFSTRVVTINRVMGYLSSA
Description: direct ELISA, plate coated with 5 ug/ml recombinant mouse IL-12. On the procedure: To determine whether the ten monoclonal antibodies described above recognize murine IL-12, two ELISAs were set up. First, a direct ELISA was set up by directly coating ELISA plates with 5 ug/ml of recombinant purified mouse IL-12 (Peprotech). Murine-anti-human IL-12 p40 mAbs were prepared at various concentrations ranging from 3 to 200 ng/ml in PBS containing 0.1% BSA (Sigma, St. Louis, Mo.). 50 μl of each antibody dilution was added to the coated ELISA plate and incubated for 1 hour at room temperature. Wells were washed 3 times with PBS containing 0.05% Tween-20. Anti-mouse IgG-HRP antibody (R&D #HAF007, Minneapolis, Minn.) was diluted 1:2000 in PBS containing 0.1% BSA; 50 ul/well was added and the plates incubated for 1 hour at room temperature. Fifty microliters of TMB solution (Sigma # T0440, St. Louis, Mo.) was added to each well and incubated for 10 minutes at room temperature. The reaction was stopped by addition of 2N sulphuric acid. Plates were read spectrophotmetrically at a wavelength of 450 nm.

B1: anti-IL-12p40 hybrid antibody 1D4.5 (antibody, human IgG1, kappa, L234A L235A, V domains shown)
VH: QVTLKESGPGILQPSQTLSLTCSFSGFSLRKSVMGVSWIRQPSGKGLEWLAHIYWDDDKYYNPSLKSRLTISKDPSRNQVFLKITSVDTADAATYYCTRRGIRSAMDYWGQGTSVTVSS
VL: DIVMTQSPDSLAVSLGERATINCKASQSVSNDVAWYQQKPGQPPKLLIYYASNRYTGVPDRFSGSGSGTDFTLTISSLQAEDVAVYYCQQDYNSPWTFGGGTKVEIKR
For the molecule B1, in test [1], the Kd came out at 0.11 nM, the koff turned out to be 3.1e-05 s⁻¹ and the kon stood at 300000 M⁻¹ s⁻¹. Besides, the “Av. IC50 (nM) huIL-12, PHA blast assay” value in test [2] was found to be 0.053 nM. Moreover, the “Av. IC50 (nM) Cyno IL-12, PHA blast assay” value in test [3] came to 0.11 nM.

B2: anti-IL-12p40 hybrid antibody 1A6.7 (antibody, human IgG1, kappa, L234A L235A, V domains shown)
VH: QVTLKESGPGILKPSQTLSLTCSFSGFSLSTSGMGVSWIRQPSGKGLEWLAHIWWDGDNYYNPSLKSQLTISKDTSRNQVFLRIATVDTADTATYYCARRTRVNYAMDYWGQGTSVTVSS
VL: DIVMTQSPDSLAVSLGERATINCKASQSVSNDVAWYQQKPGQPPKLLIYYASNRYTGVPDRFSGSGSGTDFTLTISSLQAEDVAVYYCQQDYNSPWTFGGGTKVEIKR
On to B2, for which the “Av. IC50 (nM) huIL-12, PHA blast assay” value in test [2] was found to be 0.29 nM. In addition, in test [3], the “Av. IC50 (nM) Cyno IL-12, PHA blast assay” value amounted to 0.35 nM.

B3: murine anti-human IL-12p40 monoclonal antibody 1D8 (antibody, V domains shown)
VH: QVQLQQSGAELMKPGASVKISCKATGYTFSSYWIEWVKQRPGHGLEWIGDILPGSGSTNYNEKFKDKATFTADTSFNTAYMQLSSLTSEDSAVYYCATRRFRGLDYWGQGTTLTVSS
VL: SIVMTQTPKFLLVSAGDRVTITCKASQSVSNDVAWYQQKSGQSPKLLIYYASNRYTGVPDRFTGSGYGTDFTFTISTVQPEDLAVYFCQQDYTSPFTFGSGTKLEIKR
notes: Murine mAb
On to B3, for which, in test [4], the Kd was 0.044 nM, the koff worked out at 2.3e-05 s⁻¹ and the kon is 510000 M⁻¹ s⁻¹. Also, the “Average IC50 (nM) Human IL-12, PHA blast IFN-γ assay” value in test [5] was found to be 0.31 nM. Further, in test [6], the “Average IC50 (nM) Cyno IL-12, PHA blast IFN-γ assay” value amounted to 1.4 nM. For the same molecule, the binding result in test [7] was “no binding (tested: 3 to 200 ng/ml mAb)”.

B4: anti-IL-12p40 hybrid antibody 1D4.4 (antibody, human IgG1, kappa, L234A L235A, V domains shown)
VH: EVTLRESGPALVKPTQTLTLTCTFSGFSLSKSVMGVSWIRQPPGKALEWLAHIYWDDDKYYNPSLKSRLTISKDTSKNQVVLTMTNMDPVDTATYYCARRGIRSAMDYWGQGTTVTVSS
VL: SVVMTQTPKFLLVSAGDRVTITCKASQSVSNDVAWYQQKPGQSPKLLIYYASNRYTGVPDRFTGSGYGTDFTFIISTVRAEDLAVYFCQQDYNSPWTFGGGTKLEIKR
Regarding B4, in test [1], the Kd was 0.074 nM, the koff turned out to be 2.1e-05 s⁻¹ and the kon is 280000 M⁻¹ s⁻¹. Moreover, the “Av. IC50 (nM) huIL-12, PHA blast assay” value in test [2] came out at 0.64 nM. In test [3], the “Av. IC50 (nM) Cyno IL-12, PHA blast assay” value was determined as 1.1 nM.

B5: anti-IL-12p40 hybrid antibody 1A6.3 (antibody, human IgG1, kappa, L234A L235A, V domains shown)
VH: EVTLKESGPVLVKPTETLTLTCTVSGFSLSTSGMGVSWIRQPPGKALEWLAHIWWDGDNYYNPSLKSRLTISKDTSKSQVVLTMTNMDPVDTATYYCARRTRVNYAMDYWGQGTTVTVSS
VL: SVVMTQTPKFLLVSAGDRVTITCKASQSVSNDVAWFQQKPGQSPKLLIYYASNRYTGVPDRFTGSGYGTDFTFTISTVQAEDLAVYFCQQDYNSPWTFGGGTKLEIKR
For the molecule B5, in test [1], the Kd amounted to 0.14 nM, the koff turned out to be 2.6e-05 s⁻¹ and the kon was found to be 190000 M⁻¹ s⁻¹. Further, the “Av. IC50 (nM) huIL-12, PHA blast assay” value in test [2] worked out at 0.068 nM. Besides, the “Av. IC50 (nM) Cyno IL-12, PHA blast assay” value in test [3] is 0.049 nM.

B6: murine anti-human IL-12p40 monoclonal antibody 3G7 (antibody, V domains shown)
VH: QVQLQQSGAELMKPGASVKISCKATGYTFNDYWIEWVKQRPGHGLEWIGGFSHGSGSTNYNEKFKGKATFTADSSSNTAYMQLSSLTSEDSAVYYCARRRFRGMDYWGQGTSVTVSS
VL: SIVMTQTPKFLLVSAGDRVTITCKASQSVSNDVAWYQQKPGQSPKLLIYYASNRYTGVPDRFTGSGYGTDFTFTITTVQAEDLAVYFCQQDYSSPWSFGGGTKLEIKR
notes: Murine mAb
Take B6: in test [4], the Kd is 0.047 nM, the koff is 3.8e-05 s⁻¹ and the kon was 820000 M⁻¹ s⁻¹. Moreover, in test [5], the “Average IC50 (nM) Human IL-12, PHA blast IFN-γ assay” value worked out at 0.15 nM. Besides, the “Average IC50 (nM) Cyno IL-12, PHA blast IFN-γ assay” value in test [6] is 0.35 nM. Besides, the binding result in test [7] is listed as “no binding (tested: 3 to 200 ng/ml mAb)”.

B7: anti-IL-12p40 hybrid antibody 1A6.8 (antibody, human IgG1, kappa, L234A L235A, V domains shown)
VH: EVTLRESGPALVKPTQTLTLTCTFSGFSLSTSGMGVSWIRQPPGKALEWLAHIWWDGDNYYNPSLKSRLTISKDTSKNQVVLTMTNMDPVDTATYYCARRTRVNYAMDYWGQGTTVTVSS
VL: SVVMTQTPKFLLVSAGDRVTITCKASQSVSNDVAWFQQKPGQSPKLLIYYASNRYTGVPDRFTGSGYGTDFTFTISTVQAEDLAVYFCQQDYNSPWTFGGGTKLEIKR
For B7, in test [2], the “Av. IC50 (nM) huIL-12, PHA blast assay” value was 0.08 nM. The “Av. IC50 (nM) Cyno IL-12, PHA blast assay” value in test [3] is 0.06 nM.
